Laboratory results reported in publication PMC12098889, “Structural insight into PIF6-mediated red light signal transduction of plant phytochrome B” (Cell Discovery, 2025).
Blank lines part the entries; values can stand above or below the molecule they belong to.

Experiments:
[1] = target: PIF6β (1‒182) (Arabidopsis); assay: cryo-EM structure; phyB and PIF6β mixed ~1:1.5, on ice under red light (665 nm, 800 μmol m^-2 s^-1), SEC in 25 mM HEPES pH 7.8, 250 mM KCl, 10 mM DTT, 1 mM EDTA; irradiated with red light 20 min before freezing
[2] = target: phytochrome B (phyB), full length (1‒1172) (Arabidopsis) (UniProt P14713)
[3] = target: T1, phyB^Y276H, full length (Arabidopsis, UniProt P14713 1-1172, Y276H, PΦB chromophore covalently bound); assay: pull-down; StrepII-tagged PIF6 forms or PIFNs held on Strep-Tactin Sepharose, 3× Flag-phyB or phyB^Y276H in the mixture; in the dark, 4 °C, 2 h; buffer E (100 mM Tris-HCl pH 8.0, 150 mM NaCl, 1 mM EDTA); SDS-PAGE with Coomassie and zinc-induced fluorescence; conditions: both partners purified
T1 construct: Arabidopsis phytochrome B, residues 1-1172, At2g18790, with Y276H; also called constitutively active mutant phyB^Y276H; source: E. coli BL21(DE3), co-expressed with HO1 and HY2, purified (Ni-NTA, anti-FLAG resin, Source Q); not shown: 3× Flag ([residues removed]), N-terminal, kept
T1 sequence (looked up): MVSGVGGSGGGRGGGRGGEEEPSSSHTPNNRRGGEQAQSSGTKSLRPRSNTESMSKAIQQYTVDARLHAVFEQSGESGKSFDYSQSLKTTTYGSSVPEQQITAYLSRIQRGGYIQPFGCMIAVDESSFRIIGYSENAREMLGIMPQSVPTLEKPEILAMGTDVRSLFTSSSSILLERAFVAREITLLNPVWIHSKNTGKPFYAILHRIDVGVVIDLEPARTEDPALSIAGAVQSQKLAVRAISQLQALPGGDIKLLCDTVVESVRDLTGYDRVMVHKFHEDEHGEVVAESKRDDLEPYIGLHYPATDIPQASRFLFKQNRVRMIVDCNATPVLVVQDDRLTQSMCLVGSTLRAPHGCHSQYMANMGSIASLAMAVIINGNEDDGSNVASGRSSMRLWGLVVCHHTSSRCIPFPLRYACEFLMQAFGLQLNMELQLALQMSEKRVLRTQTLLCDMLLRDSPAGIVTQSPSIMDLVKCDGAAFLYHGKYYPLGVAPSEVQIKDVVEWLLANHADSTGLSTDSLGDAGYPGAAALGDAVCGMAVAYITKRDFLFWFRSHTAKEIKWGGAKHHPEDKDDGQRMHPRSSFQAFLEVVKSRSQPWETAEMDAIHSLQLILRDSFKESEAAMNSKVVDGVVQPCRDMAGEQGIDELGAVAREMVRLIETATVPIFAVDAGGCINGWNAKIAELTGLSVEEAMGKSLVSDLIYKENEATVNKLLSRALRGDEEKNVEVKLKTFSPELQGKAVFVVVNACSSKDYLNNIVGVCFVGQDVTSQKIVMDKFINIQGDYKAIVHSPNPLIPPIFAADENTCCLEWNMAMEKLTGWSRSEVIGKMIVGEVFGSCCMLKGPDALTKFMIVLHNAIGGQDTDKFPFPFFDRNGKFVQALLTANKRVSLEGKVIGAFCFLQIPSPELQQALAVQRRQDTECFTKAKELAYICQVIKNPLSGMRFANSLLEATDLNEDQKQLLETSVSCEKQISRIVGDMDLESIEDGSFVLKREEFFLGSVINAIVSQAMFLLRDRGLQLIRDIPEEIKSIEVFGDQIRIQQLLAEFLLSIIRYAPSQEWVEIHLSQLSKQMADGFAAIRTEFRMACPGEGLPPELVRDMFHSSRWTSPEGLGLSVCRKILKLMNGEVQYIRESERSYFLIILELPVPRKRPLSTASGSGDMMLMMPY

[4] = target: the molecule itself; assay: cross-linking; thiol-directed cross-linking with 1 mM M2M, ~2 μM protein, on ice 30 min, under red light (665 nm, 767 μmol m^-2 s^-1); 25 mM Tris-HCl pH 8.0, 150 mM NaCl; reversed by DTT; more cross-linked band with the PIF6 fragment 13-100
[5] = target: the molecule itself; assay: cryo-EM structure; phyB^Y276H or phyBN^Y276H mixed with PIF6β ~1:1.5; full-length complex prepared in the dark; SEC on Superose 6 Increase before freezing

stoichiometry N (phyB per PIF6β) [1]: 2
Molecule: phytochrome B (phyB), full length (1‒1172) (from UniProt P14713 1-1172) (receptor)

Pfr→Pr thermal reversion at 25 °C: amount of phyB-Pfr remaining after 400 min with PIF6β against phyB alone [2]: 8 fold
Molecule: PIF6β (1‒182) (natural protein)

binding result [3]: binds
B1: PIF6α (1‒363) (natural protein, Arabidopsis, UniProt Q8L5W7 1-363, looked up)
chain: MMFLPTDYCCRLSDQEYMELVFENGQILAKGQRSNVSLHNQRTKSIMDLYEAEYNEDFMKSIIHGGGGAITNLGDTQVVPQSHVAAAHETNMLESNKHVDDSETLKASSSKRMMVDYHNRKKIKFIPPDEQSVVADRSFKLGFDTSSVGFTEDSEGSMYLSSSLDDESDDARPQVPARTRKALVKRKRNAEAYNSPERNQRNDINKKMRTLQNLLPNSHKDDNESMLDEAINYMTNLQLQVQMMTMGNRFVTPSMMMPLGPNYSQMGLAMGVGMQMGEQQFLPAHVLGAGLPGINDSADMLRFLNHPGLMPMQNSAPFIPTENCSPQSVPPSCAAFPNQIPNPNSLSNLDGATLHKKSRKTNR
notes: Modified pCold TF vector; purified on Ni resin, so a His tag is likely present but is not described; also called full-length PIF6α; source: E. coli BL21(DE3), purified (Ni-NTA, Strep-Tactin, Source Q); not shown: StrepII, C-terminal, kept

Second part, the molecule before the results:

B2: phyB^T449C (with C925S, C936S, C972S and C1121S) (receptor, Arabidopsis, UniProt P14713 1-1172, looked up)
chain: MVSGVGGSGGGRGGGRGGEEEPSSSHTPNNRRGGEQAQSSGTKSLRPRSNTESMSKAIQQYTVDARLHAVFEQSGESGKSFDYSQSLKTTTYGSSVPEQQITAYLSRIQRGGYIQPFGCMIAVDESSFRIIGYSENAREMLGIMPQSVPTLEKPEILAMGTDVRSLFTSSSSILLERAFVAREITLLNPVWIHSKNTGKPFYAILHRIDVGVVIDLEPARTEDPALSIAGAVQSQKLAVRAISQLQALPGGDIKLLCDTVVESVRDLTGYDRVMVYKFHEDEHGEVVAESKRDDLEPYIGLHYPATDIPQASRFLFKQNRVRMIVDCNATPVLVVQDDRLTQSMCLVGSTLRAPHGCHSQYMANMGSIASLAMAVIINGNEDDGSNVASGRSSMRLWGLVVCHHTSSRCIPFPLRYACEFLMQAFGLQLNMELQLALQMSEKRVLRTQCLLCDMLLRDSPAGIVTQSPSIMDLVKCDGAAFLYHGKYYPLGVAPSEVQIKDVVEWLLANHADSTGLSTDSLGDAGYPGAAALGDAVCGMAVAYITKRDFLFWFRSHTAKEIKWGGAKHHPEDKDDGQRMHPRSSFQAFLEVVKSRSQPWETAEMDAIHSLQLILRDSFKESEAAMNSKVVDGVVQPCRDMAGEQGIDELGAVAREMVRLIETATVPIFAVDAGGCINGWNAKIAELTGLSVEEAMGKSLVSDLIYKENEATVNKLLSRALRGDEEKNVEVKLKTFSPELQGKAVFVVVNACSSKDYLNNIVGVCFVGQDVTSQKIVMDKFINIQGDYKAIVHSPNPLIPPIFAADENTCCLEWNMAMEKLTGWSRSEVIGKMIVGEVFGSCCMLKGPDALTKFMIVLHNAIGGQDTDKFPFPFFDRNGKFVQALLTANKRVSLEGKVIGAFCFLQIPSPELQQALAVQRRQDTESFTKAKELAYISQVIKNPLSGMRFANSLLEATDLNEDQKQLLETSVSSEKQISRIVGDMDLESIEDGSFVLKREEFFLGSVINAIVSQAMFLLRDRGLQLIRDIPEEIKSIEVFGDQIRIQQLLAEFLLSIIRYAPSQEWVEIHLSQLSKQMADGFAAIRTEFRMACPGEGLPPELVRDMFHSSRWTSPEGLGLSVSRKILKLMNGEVQYIRESERSYFLIILELPVPRKRPLSTASGSGDMMLMMPY
modifications: PΦB chromophore covalently bound
notes: Arabidopsis phytochrome B (1-1172) with T449C for cross-linking and C925S, C936S, C972S, C1121S against nonspecific cross-linking; source: E. coli BL21(DE3), purified
binding result [4]: binds

B3: phyB^Y276H/T449C (with C925S, C936S, C972S and C1121S) (receptor, Arabidopsis, UniProt P14713 1-1172, looked up)
chain: MVSGVGGSGGGRGGGRGGEEEPSSSHTPNNRRGGEQAQSSGTKSLRPRSNTESMSKAIQQYTVDARLHAVFEQSGESGKSFDYSQSLKTTTYGSSVPEQQITAYLSRIQRGGYIQPFGCMIAVDESSFRIIGYSENAREMLGIMPQSVPTLEKPEILAMGTDVRSLFTSSSSILLERAFVAREITLLNPVWIHSKNTGKPFYAILHRIDVGVVIDLEPARTEDPALSIAGAVQSQKLAVRAISQLQALPGGDIKLLCDTVVESVRDLTGYDRVMVHKFHEDEHGEVVAESKRDDLEPYIGLHYPATDIPQASRFLFKQNRVRMIVDCNATPVLVVQDDRLTQSMCLVGSTLRAPHGCHSQYMANMGSIASLAMAVIINGNEDDGSNVASGRSSMRLWGLVVCHHTSSRCIPFPLRYACEFLMQAFGLQLNMELQLALQMSEKRVLRTQCLLCDMLLRDSPAGIVTQSPSIMDLVKCDGAAFLYHGKYYPLGVAPSEVQIKDVVEWLLANHADSTGLSTDSLGDAGYPGAAALGDAVCGMAVAYITKRDFLFWFRSHTAKEIKWGGAKHHPEDKDDGQRMHPRSSFQAFLEVVKSRSQPWETAEMDAIHSLQLILRDSFKESEAAMNSKVVDGVVQPCRDMAGEQGIDELGAVAREMVRLIETATVPIFAVDAGGCINGWNAKIAELTGLSVEEAMGKSLVSDLIYKENEATVNKLLSRALRGDEEKNVEVKLKTFSPELQGKAVFVVVNACSSKDYLNNIVGVCFVGQDVTSQKIVMDKFINIQGDYKAIVHSPNPLIPPIFAADENTCCLEWNMAMEKLTGWSRSEVIGKMIVGEVFGSCCMLKGPDALTKFMIVLHNAIGGQDTDKFPFPFFDRNGKFVQALLTANKRVSLEGKVIGAFCFLQIPSPELQQALAVQRRQDTESFTKAKELAYISQVIKNPLSGMRFANSLLEATDLNEDQKQLLETSVSSEKQISRIVGDMDLESIEDGSFVLKREEFFLGSVINAIVSQAMFLLRDRGLQLIRDIPEEIKSIEVFGDQIRIQQLLAEFLLSIIRYAPSQEWVEIHLSQLSKQMADGFAAIRTEFRMACPGEGLPPELVRDMFHSSRWTSPEGLGLSVSRKILKLMNGEVQYIRESERSYFLIILELPVPRKRPLSTASGSGDMMLMMPY
modifications: PΦB chromophore covalently bound
notes: Arabidopsis phytochrome B (1-1172) with Y276H, T449C and C925S, C936S, C972S, C1121S; source: E. coli BL21(DE3), purified
binding result [4]: binds

B4: phyBN^Y276H (1‒908) (domain or fragment, Arabidopsis, UniProt P14713 1-908, looked up)
chain: MVSGVGGSGGGRGGGRGGEEEPSSSHTPNNRRGGEQAQSSGTKSLRPRSNTESMSKAIQQYTVDARLHAVFEQSGESGKSFDYSQSLKTTTYGSSVPEQQITAYLSRIQRGGYIQPFGCMIAVDESSFRIIGYSENAREMLGIMPQSVPTLEKPEILAMGTDVRSLFTSSSSILLERAFVAREITLLNPVWIHSKNTGKPFYAILHRIDVGVVIDLEPARTEDPALSIAGAVQSQKLAVRAISQLQALPGGDIKLLCDTVVESVRDLTGYDRVMVHKFHEDEHGEVVAESKRDDLEPYIGLHYPATDIPQASRFLFKQNRVRMIVDCNATPVLVVQDDRLTQSMCLVGSTLRAPHGCHSQYMANMGSIASLAMAVIINGNEDDGSNVASGRSSMRLWGLVVCHHTSSRCIPFPLRYACEFLMQAFGLQLNMELQLALQMSEKRVLRTQTLLCDMLLRDSPAGIVTQSPSIMDLVKCDGAAFLYHGKYYPLGVAPSEVQIKDVVEWLLANHADSTGLSTDSLGDAGYPGAAALGDAVCGMAVAYITKRDFLFWFRSHTAKEIKWGGAKHHPEDKDDGQRMHPRSSFQAFLEVVKSRSQPWETAEMDAIHSLQLILRDSFKESEAAMNSKVVDGVVQPCRDMAGEQGIDELGAVAREMVRLIETATVPIFAVDAGGCINGWNAKIAELTGLSVEEAMGKSLVSDLIYKENEATVNKLLSRALRGDEEKNVEVKLKTFSPELQGKAVFVVVNACSSKDYLNNIVGVCFVGQDVTSQKIVMDKFINIQGDYKAIVHSPNPLIPPIFAADENTCCLEWNMAMEKLTGWSRSEVIGKMIVGEVFGSCCMLKGPDALTKFMIVLHNAIGGQDTDKFPFPFFDRNGKFVQALLTANKRVSLEGKVIGAFCFLQIPS
modifications: PΦB chromophore covalently bound
notes: Arabidopsis phytochrome B, residues 1-908, with Y276H; also called HKRD-truncated phyBN^Y276H; truncated phyBN^Y276H (M1‒S908); source: E. coli BL21(DE3), co-expressed with HO1 and HY2, purified; not shown: 3× Flag, N-terminal, kept
binding result [5]: binds
